Publication doi:10.1101/2025.07.20.665809 (bioRxiv, 2025)
Residue numbers refer to the chain shown, from its start.

B1: His-hArc/Arg3.1 (recombinant human activity-regulated cytoskeleton-associated protein), wild type (natural protein, UniProt Q7LC44 2-396, looked up)
chain: ELDHRTSGGLHAYPGPRGGQVAKPNVILQIGKCRAEMLEHVRRTHRHLLAEVSKQVERELKGLHRSVGKLESNLDGYVPTSDSQRWKKSIKACLCRCQETIANLERWVKREMHVWREVFYRLERWADRLESTGGKYPVGSESARHTVSVGVGGPESYCHEADGYDYTVSPYAITPPPAAGELPGQEPAEAQQYQPWVPGEDGQPSPGVDTQIFEDPREFLSHLEEYLRQVGGSEEYWLSQIQNHMNGPAKKWWEFKQGSVKNWVEFKKEFLQYSEGTLSREAIQRELDLPQKQGEPLDQFLWRKRDLYQTLYVDADEEEIIQYVVGTLQPKLKRFLRHPLPKTLEQLIQRGMEVQDDLEQAAEPAGPHLPVEDEAETLTPAPNSESVASDRTQPE
B2: His-hArc/Arg3.1 C94/98A (natural protein, human, UniProt Q7LC44 2-396, looked up)
chain: B1 chain with C93A, C97A

Biological target: the molecule itself
Assay: cross-linking

Protein	binding result
B1	binds
B2	binds
